For one assay, the target named is T1, Her3 (ErbB3) receptor (human, UniProt P21860 20-1342).
T1 construct: whole, on cells; Endogenous receptor on human cancer cell lines
Put plainly: flow cytometry on A431 cells, PE-coupled anti-human Fc secondary antibody. On the procedure: (§1) A431 were detached and counted. 1.5×10e5 cells were seeded per well of a conical 96-well plate. Cells were spun down (1500 rpm, 4° C., 5 min) and incubated for 30 min on ice in 50 μL of a dilution series of the respective bispecific antibody in PBS with 2% FCS (fetal calf serum). Cells were again spun down and washed once with 200 μL PBS containing 2% FCS followed by a second incubation of 30 min with a phycoerythrin-coupled antibody directed against human Fc which was diluted in PBS containing 2% FCS (Jackson Immunoresearch, 109116098). Cells were spun down washed twice with 200 μL PBS containing 2% FCS, resuspended in BD CellFix solution (BD Biosciences) and incubated for at least 10 min on ice. Mean fluorescence intensity (mfi) of the cells was determined by flow cytometry (FACS Canto, BD). Mfi was determined at least in duplicates of two independent stainings Flow cytometry spectra were further processed using the FlowJo software (TreeStar). Half-maximal binding was determined using XLFit 4.0 (IDBS) and the dose response one site model 205.
(§2) The binding properties of the bispecific antibodies to their respective receptor on the cell surface was analyzed on A431 cancer cells in a flow cytometry based assay. Cells were incubated with the mono- or bispecific primary antibodies and binding of these antibodies to their cognate receptors was detected with a secondary antibody coupled to a fluorophore binding specifically to the Fc of the primary antibody. The mean fluorescence intensity of a dilution series of the primary antibodies was plotted against the concentration of the antibody to obtain a sigmoidal binding curve. Cell surface expression of c-Met and Her3 was validated by incubation with the bivalent 5D5 and Her3 clone 29 antibody only. The Her3/c-Met_KHSS antibody readily binds to the cell surface of A431.

The next assay has as its target T2, c-Met receptor (human, UniProt P08581 25-1390).
T2 construct: whole, on cells; Endogenous receptor on human cells
Described as above. On the procedure:
as §1, §2

From patent publication US20130022601A1 (Hoffmann-La Roche, published 2013) come the findings set out here.

T1 sequence (P21860 20-1342): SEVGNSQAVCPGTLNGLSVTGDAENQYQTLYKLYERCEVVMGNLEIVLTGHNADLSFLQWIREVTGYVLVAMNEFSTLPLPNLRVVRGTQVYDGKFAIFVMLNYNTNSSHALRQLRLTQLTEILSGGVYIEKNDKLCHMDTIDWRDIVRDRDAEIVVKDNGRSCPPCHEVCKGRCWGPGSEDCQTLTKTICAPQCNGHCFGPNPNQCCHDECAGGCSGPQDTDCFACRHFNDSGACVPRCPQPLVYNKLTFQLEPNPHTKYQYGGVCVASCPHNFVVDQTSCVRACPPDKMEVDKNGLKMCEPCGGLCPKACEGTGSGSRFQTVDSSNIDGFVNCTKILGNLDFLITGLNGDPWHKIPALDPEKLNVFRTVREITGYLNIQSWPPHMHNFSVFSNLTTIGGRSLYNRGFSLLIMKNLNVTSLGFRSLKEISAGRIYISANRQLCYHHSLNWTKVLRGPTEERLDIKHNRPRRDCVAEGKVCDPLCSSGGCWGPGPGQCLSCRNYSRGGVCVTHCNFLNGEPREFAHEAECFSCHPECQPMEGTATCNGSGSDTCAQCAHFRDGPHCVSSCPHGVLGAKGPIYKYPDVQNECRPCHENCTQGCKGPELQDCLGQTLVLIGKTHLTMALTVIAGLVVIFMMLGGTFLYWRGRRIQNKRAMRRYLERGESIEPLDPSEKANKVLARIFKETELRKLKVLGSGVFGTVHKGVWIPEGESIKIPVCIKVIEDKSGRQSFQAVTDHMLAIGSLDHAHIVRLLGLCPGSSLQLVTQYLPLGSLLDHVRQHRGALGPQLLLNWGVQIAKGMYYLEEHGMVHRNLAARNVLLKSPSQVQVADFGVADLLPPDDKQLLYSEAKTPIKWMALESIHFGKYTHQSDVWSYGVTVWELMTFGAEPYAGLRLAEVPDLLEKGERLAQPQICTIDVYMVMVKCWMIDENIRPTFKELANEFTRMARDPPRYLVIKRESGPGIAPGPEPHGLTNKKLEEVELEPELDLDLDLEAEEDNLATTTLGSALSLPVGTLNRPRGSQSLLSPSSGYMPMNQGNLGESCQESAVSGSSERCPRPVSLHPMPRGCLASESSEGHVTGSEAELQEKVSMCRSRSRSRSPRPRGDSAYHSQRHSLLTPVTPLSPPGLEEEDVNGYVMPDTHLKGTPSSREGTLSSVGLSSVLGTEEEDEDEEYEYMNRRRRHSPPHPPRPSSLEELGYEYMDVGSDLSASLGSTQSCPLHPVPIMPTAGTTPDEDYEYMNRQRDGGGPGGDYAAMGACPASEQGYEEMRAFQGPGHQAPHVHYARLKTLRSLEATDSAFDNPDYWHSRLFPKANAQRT
T2 sequence (P08581 25-1390): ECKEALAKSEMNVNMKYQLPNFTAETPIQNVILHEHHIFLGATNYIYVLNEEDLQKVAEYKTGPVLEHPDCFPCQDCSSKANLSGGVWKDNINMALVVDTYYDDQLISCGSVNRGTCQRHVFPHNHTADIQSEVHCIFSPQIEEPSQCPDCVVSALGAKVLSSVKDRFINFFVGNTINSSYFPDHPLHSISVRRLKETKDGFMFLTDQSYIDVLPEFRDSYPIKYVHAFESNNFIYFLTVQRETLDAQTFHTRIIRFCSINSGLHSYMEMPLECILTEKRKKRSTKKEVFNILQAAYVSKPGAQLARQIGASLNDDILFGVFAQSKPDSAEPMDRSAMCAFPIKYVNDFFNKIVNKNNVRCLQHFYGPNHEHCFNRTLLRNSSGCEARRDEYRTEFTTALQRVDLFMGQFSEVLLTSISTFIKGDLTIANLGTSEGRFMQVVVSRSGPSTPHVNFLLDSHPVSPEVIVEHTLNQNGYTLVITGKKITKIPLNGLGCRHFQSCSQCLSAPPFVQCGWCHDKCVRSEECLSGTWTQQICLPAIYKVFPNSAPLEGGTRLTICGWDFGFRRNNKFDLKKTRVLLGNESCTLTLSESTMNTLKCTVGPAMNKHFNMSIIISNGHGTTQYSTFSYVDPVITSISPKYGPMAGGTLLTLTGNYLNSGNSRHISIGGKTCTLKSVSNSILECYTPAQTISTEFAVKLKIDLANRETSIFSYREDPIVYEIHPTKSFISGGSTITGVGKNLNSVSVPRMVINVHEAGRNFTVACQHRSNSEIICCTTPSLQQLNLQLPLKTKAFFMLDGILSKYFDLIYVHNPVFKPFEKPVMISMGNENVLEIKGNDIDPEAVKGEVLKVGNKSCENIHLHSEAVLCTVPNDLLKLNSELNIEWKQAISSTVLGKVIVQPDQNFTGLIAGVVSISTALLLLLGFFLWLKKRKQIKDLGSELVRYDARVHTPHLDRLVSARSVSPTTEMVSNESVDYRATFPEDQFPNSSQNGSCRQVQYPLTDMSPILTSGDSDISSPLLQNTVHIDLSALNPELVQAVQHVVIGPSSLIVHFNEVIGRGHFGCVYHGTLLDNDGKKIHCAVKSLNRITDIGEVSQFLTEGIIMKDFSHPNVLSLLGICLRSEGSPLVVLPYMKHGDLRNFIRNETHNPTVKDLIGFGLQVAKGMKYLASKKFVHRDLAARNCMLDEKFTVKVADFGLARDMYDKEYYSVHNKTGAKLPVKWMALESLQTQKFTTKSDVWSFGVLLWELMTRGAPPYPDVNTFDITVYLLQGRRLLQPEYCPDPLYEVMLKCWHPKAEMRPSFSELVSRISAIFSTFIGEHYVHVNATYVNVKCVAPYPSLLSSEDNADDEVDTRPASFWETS

B1: <ErbB3> HER3 clone 29 antibody (antibody, human IgG1, kappa, V domains shown)
VH: DVQLQESGPGLVKPSQSLSLTCSVTGYSITSAYYWNWIRQFPGNKLEWMGYISYGGSNSYAPSLKNRFSITRDTSKNQFFLKLNSVTTEDTATYYCARESDYAYFDYWGQGTTLTVSS
VL: DIQMTQTTSSLSASLGDRVTISCRARQDISNYLNWYQRKPDGTVKLLIYYTSRLHSGVPSRFSGSGSGTDYSLTISNLEQEDIATYFCQQGNTFPWTFGGGTKLEIKR
notes: Bivalent parental antibody (chimeric), with unmodified heavy and light chains; also called parental Her3 clone29
For the molecule B1, in the assay with Her3 (ErbB3) receptor, the binding result is recorded as “binds”.

B2: <c-Met> Mab 5D5 (antibody, human IgG1, kappa, V domains shown)
VH: EVQLVESGGGLVQPGGSLRLSCAASGYTFTSYWLHWVRQAPGKGLEWVGMIDPSNSDTRFNPNFKDRFTISADTSKNTAYLQMNSLRAEDTAVYYCATYRSYVTPLDYWGQGTLVTVSS
VL: DIQMTQSPSSLSASVGDRVTITCKSSQSLLYTSSQKNYLAWYQQKPGKAPKLLIYWASTRESGVPSRFSGSGSGTDFTLTISSLQPEDFATYYCQQYYAYPWTFGQGTKVEIKR
notes: Bivalent 5D5 antibody (humanized), with unmodified heavy and light chains; also called bivalent 5D5; c-Met 5D5
For the molecule B2, in the assay with c-Met receptor, the binding result is recorded as “binds”.

B3: trivalent, bispecific <ErbB3-c-Met> antibody Her3/Met_KHSS (bispecific antibody, human IgG1, kappa)
heavy 1: not shown
heavy 2: not shown
light: DIQMTQTTSSLSASLGDRVTISCRARQDISNYLNWYQRKPDGTVKLLIYYTSRLHSGVPSRFSGSGSGTDYSLTISNLEQEDIATYFCQQGNTFPWTFGGGTKLEIKRTVAAPSVFIFPPSDEQLKSGTASVVCLLNNFYPREAKVQWKVDNALQSGNSQESVTEQDSKDSTYSLSSTLTLSKADYEKHKVYACEVTHQGLSSPVTKSFNRGEC
notes: Full length Her3 clone 29 (chimeric) antibody with knobs-into-holes and CH3 disulfide mutations
With B3, the binding result with Her3 (ErbB3) receptor is listed as “binds”.
